Test results from the supplement of paper PMC6755084.

B1: F1*; a variant is named by its letters at N, in order (parent)
chain: GAGACCGCAACTGAAAAGTTGTTATCNNNNNNNNAANNNNNTTNGNNGGGTTGAAGTTCTGCACGTAGAAGCAAAAGGC

Variants of: B1
Test: fraction ligated after 30 min (ligated reads / total reads); higher = more ligase activity
Details: with F1*sub RNA substrate (template-directed ligation), 42 °C
Method: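 Chip-synthesised pool of F1* ligase ribozyme variants (all single and double substitutions, single, double and triple deletions in the catalytic core and GAA bulge, plus designed variants) was transcribed with T7 and reacted as a pool with excess substrate F1*sub for 30 min at 42 C in 50 mM EPPS pH 8.5, 25 mM MgCl2. Ligated and unligated bands were separated by PAGE, barcoded by RT and deep sequenced; fraction ligated = ligated reads / total reads per variant, relative activity = FL / FL of wild type (0.826). Sequences are the DNA template of the ribozyme.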

Row | Variant | fraction ligated
1 | GAGACCGCAACTGAAAAGTTGTTATCACTTGCGTAAGACCTTTGGATGGGTTGAAGTTCTGCACGTAGAAGCAAAAGGC [ACTTGCGTGACCTGAT] | 0.815
2 | GAGACCGCAACTGAAAAGTTGTTATCACTTGTGTAAGACCTTTGGATGGGTTGAAGTTCTGCACGTAGAAGCAAAAGGC [ACTTGTGTGACCTGAT] | 0.844
3 | GAGACCGCAACTGAAAAGTTGTTATCACTTTCGTAAGACACTTGGATGGGTTGAAGTTCTGCACGTAGAAGCAAAAGGC [ACTTTCGTGACACGAT] | 0.779
4 | GAGACCGCAACTGAAAAGTTGTTATCCTTGTCGTAAGAACTTTGGATGGGTTGAAGTTCTGCACGTAGAAGCAAAAGGC [CTTGTCGTGAACTGAT] | 0.809
5 | GAGACCGCAACTGAAAAGTTGTTATCACTTGTCGAAACACTTTGGATGGGTTGAAGTTCTGCACGTAGAAGCAAAAGGC [ACTTGTCGACACTGAT] | 0.822
6 | GAGACCGCAACTGAAAAGTTGTTATCACTTGTCGAAGACATTTGGATGGGTTGAAGTTCTGCACGTAGAAGCAAAAGGC [ACTTGTCGGACATGAT] | 0.831
7 | GAGACCGCAACTGAAAAGTTGTTATCACTTTCGTAAGAACTTTGGATGGGTTGAAGTTCTGCACGTAGAAGCAAAAGGC [ACTTTCGTGAACTGAT] | 0.873
8 | GAGACCGCAACTGAAAAGTTGTTATCACTTGTCGAAGACCTTTGGATGGGTTGAAGTTCTGCACGTAGAAGCAAAAGGC [ACTTGTCGGACCTGAT] | 0.801
9 | GAGACCGCAACTGAAAAGTTGTTATCCTTGTCGTAAGACACTTTGATGGGTTGAAGTTCTGCACGTAGAAGCAAAAGGC [CTTGTCGTGACACTAT] | 0.779
10 | GAGACCGCAACTGAAAAGTTGTTATCCTTGTCGTAAGACACTTGGATGGGTTGAAGTTCTGCACGTAGAAGCAAAAGGC [CTTGTCGTGACACGAT] | 0.788
11 | GAGACCGCAACTGAAAAGTTGTTATCACTGTCGTAAGAACTTTGGATGGGTTGAAGTTCTGCACGTAGAAGCAAAAGGC [ACTGTCGTGAACTGAT] | 0.858
12 | GAGACCGCAACTGAAAAGTTGTTATCACTGTCGTAAGCACTTTGGATGGGTTGAAGTTCTGCACGTAGAAGCAAAAGGC [ACTGTCGTGCACTGAT] | 0.833
13 | GAGACCGCAACTGAAAAGTTGTTATCACTTGTGTAAGACACTTTGGAGGGTTGAAGTTCTGCACGTAGAAGCAAAAGGC [ACTTGTGTGACACTGA] | 0.0628
14 | GAGACCGCAACTGAAAAGTTGTTATCACTTGTGTAAGACACTTTGGTGGGTTGAAGTTCTGCACGTAGAAGCAAAAGGC [ACTTGTGTGACACTGT] | 0.0697
15 | GAGACCGCAACTGAAAAGTTGTTATCACTTGTCTAAGCACTTTGGATGGGTTGAAGTTCTGCACGTAGAAGCAAAAGGC [ACTTGTCTGCACTGAT] | 0.797
16 | GAGACCGCAACTGAAAAGTTGTTATCACTTGCGTAAGCACTTTGGATGGGTTGAAGTTCTGCACGTAGAAGCAAAAGGC [ACTTGCGTGCACTGAT] | 0.856
17 | GAGACCGCAACTGAAAAGTTGTTATCACTTGCGTAAGAACTTTGGATGGGTTGAAGTTCTGCACGTAGAAGCAAAAGGC [ACTTGCGTGAACTGAT] | 0.85
18 | GAGACCGCAACTGAAAAGTTGTTATCACTGTCGTAAGACCTTTGGATGGGTTGAAGTTCTGCACGTAGAAGCAAAAGGC [ACTGTCGTGACCTGAT] | 0.849

Row | Variant | fraction ligated
19 | GAGACCGCAACTGAAAAGTTGTTATCACTTGTCTAAGACACTTTGATGGGTTGAAGTTCTGCACGTAGAAGCAAAAGGC [ACTTGTCTGACACTAT] | 0.775
20 | GAGACCGCAACTGAAAAGTTGTTATCACTTGCGTAAGACATTTGGATGGGTTGAAGTTCTGCACGTAGAAGCAAAAGGC [ACTTGCGTGACATGAT] | 0.847
21 | GAGACCGCAACTGAAAAGTTGTTATCATTGTCGTAAGCACTTTGGATGGGTTGAAGTTCTGCACGTAGAAGCAAAAGGC [ATTGTCGTGCACTGAT] | 0.777
22 | GAGACCGCAACTGAAAAGTTGTTATCACTTGCGTAAGACACTTGGATGGGTTGAAGTTCTGCACGTAGAAGCAAAAGGC [ACTTGCGTGACACGAT] | 0.801
23 | GAGACCGCAACTGAAAAGTTGTTATCACTTTCGTAAGCACTTTGGATGGGTTGAAGTTCTGCACGTAGAAGCAAAAGGC [ACTTTCGTGCACTGAT] | 0.8
24 | GAGACCGCAACTGAAAAGTTGTTATCATTGTCGTAAGAACTTTGGATGGGTTGAAGTTCTGCACGTAGAAGCAAAAGGC [ATTGTCGTGAACTGAT] | 0.838
25 | GAGACCGCAACTGAAAAGTTGTTATCATTGTCGTAAGACACTTTGGAGGGTTGAAGTTCTGCACGTAGAAGCAAAAGGC [ATTGTCGTGACACTGA] | 0.12
26 | GAGACCGCAACTGAAAAGTTGTTATCATTGTCGTAAGACACTTTGGTGGGTTGAAGTTCTGCACGTAGAAGCAAAAGGC [ATTGTCGTGACACTGT] | 0.583
27 | GAGACCGCAACTGAAAAGTTGTTATCACTGTCGTAAACACTTTGGATGGGTTGAAGTTCTGCACGTAGAAGCAAAAGGC [ACTGTCGTACACTGAT] | 0.84
28 | GAGACCGCAACTGAAAAGTTGTTATCACTTGTGTAAACACTTTGGATGGGTTGAAGTTCTGCACGTAGAAGCAAAAGGC [ACTTGTGTACACTGAT] | 0.86
29 | GAGACCGCAACTGAAAAGTTGTTATCACTTGTCTAAGACACTTGGATGGGTTGAAGTTCTGCACGTAGAAGCAAAAGGC [ACTTGTCTGACACGAT] | 0.786
30 | GAGACCGCAACTGAAAAGTTGTTATCACTGTCGTAAGACATTTGGATGGGTTGAAGTTCTGCACGTAGAAGCAAAAGGC [ACTGTCGTGACATGAT] | 0.846
31 | GAGACCGCAACTGAAAAGTTGTTATCACTTGTCGAAGCACTTTGGATGGGTTGAAGTTCTGCACGTAGAAGCAAAAGGC [ACTTGTCGGCACTGAT] | 0.78
32 | GAGACCGCAACTGAAAAGTTGTTATCACTGTCGTAAGACACTTGGATGGGTTGAAGTTCTGCACGTAGAAGCAAAAGGC [ACTGTCGTGACACGAT] | 0.812
33 | GAGACCGCAACTGAAAAGTTGTTATCACTTGTCGAAGACACTTTGATGGGTTGAAGTTCTGCACGTAGAAGCAAAAGGC [ACTTGTCGGACACTAT] | 0.769
34 | GAGACCGCAACTGAAAAGTTGTTATCACTTTCGTAAGACATTTGGATGGGTTGAAGTTCTGCACGTAGAAGCAAAAGGC [ACTTTCGTGACATGAT] | 0.832
35 | GAGACCGCAACTGAAAAGTTGTTATCATTGTCGTAAGACACTTTGATGGGTTGAAGTTCTGCACGTAGAAGCAAAAGGC [ATTGTCGTGACACTAT] | 0.776
